The subject of series [1] is HeLa Kyoto. Description: solubility in G1/S (NP-40 vs SDS abundance) (log2 ratio); higher = more soluble. The note with it: cell cycle stage: G1/S.
The test system of series [2] is HeLa Kyoto. Description: melting temperature (median over replicates), in situ; higher = more thermally stable.
The subject of series [3] is HeLa Kyoto. Description: thermal stability score vs G1/S (z-score of summed log2 fold changes over temperatures); higher = more thermally stable than in G1/S.
For series [4], the system named is HeLa Kyoto. Description: solubility change mitosis vs G1/S (difference of NP-40 vs SDS log2 ratios) (log2 ratio difference); higher = more soluble in mitosis.
Where [5] appears, read: cell cycle stage: early G1 (4.5 h after nocodazole release).
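Throughout, for melting temperature (median over replicates), in situ: HeLa Kyoto cells synchronized by double thymidine or nocodazole block, proteins quantified by TMT10plex mass spectrometry, three independent biological replicates.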
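Throughout, for solubility change mitosis vs G1/S (difference of NP-40 vs SDS log2 ratios): synchronized HeLa Kyoto cells (double thymidine block for G1/S, nocodazole release for mitosis), protein amounts in NP-40 versus SDS lysates quantified by mass spectrometry, three biological replicates.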
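Throughout, for solubility in G1/S (NP-40 vs SDS abundance): HeLa Kyoto cells arrested at G1/S by double thymidine block, proteins quantified by TMT10plex mass spectrometry in mild NP-40 versus SDS extracts, three biological replicates.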
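Throughout, for thermal stability score vs G1/S (z-score of summed log2 fold changes over temperatures): synchronized HeLa Kyoto cells, proteins quantified by TMT10plex mass spectrometry, three biological replicates, mitosis taken 0.5 h after nocodazole release, G1/S directly after double thymidine block.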

For “MAVEDSTLQVVVRVRPPTPRELDSQRRPVVQVVDERVLVFNPEEPDGGFPGLKWGGTHDGPKKKGKDLTFVFDRVFGEAATQQDVFQHTTHSVLDSFLQGYNCSVFAYGATGAGKTHTMLGREGDPGIMYLTTVELYRRLEARQQEKHFEVLISYQEVYNEQIHDLLEPKGPLAIREDPDKGVVVQGLSFHQPASAEQLLEILTRGNRNRTQHPTDANATSSRSHAIFQIFVKQQDRVPGLTQAVQVAKMSLIDLAGSERASSTHAKGERLREGANINRSLLALINVLNALADAKGRKTHVPYRDSKLTRLLKDSLGGNCRTVMIAAISPSSLTYEDTYNTLKYADRAKEIRLSLKSNVTSLDCHISQYATICQQLQAEVAALRKKLQVYEGGGQPPPQDLPGSPKSGPPPEHQPCTPELPAGPRALQEESLGMEAQVERAMEGNSSDQEQSPEDEDEGPAEEVPTQMPEQNPTHALPESPRLTLQPKPVVGHFSARELDGDRSKQLALKVLCVAQRQYSLLQAANLLTPDMITEFETLQQLVQEEKIEPGAEALRTSGLARGAPLAQELCSESIPVPSPLCPEPPGYTGPVTRTMARRLSGPLHTLGIPPGPNCTPAQGSRWPMEKKRRRPSALEADSPMAPKRGTKRQRQSFLPCLRRGSLPDTQPSQGPSTPKGERASSPCHSPRVCPATVIKSRVPLGPSAMQNCSTPLALPTRDLNATFDLSEEPPSKPSFHECIGWDKIPQELSRLDQPFIPRAPVPLFTMKGPKPTSSLPGTSACKKKRVASSSVSHGRSRIARLPSSTLKRPAGPLVLPELPLSPLCPSNRRNGKDLIRVGRALSAGNGVTKVS [KIF18B]”, the “solubility in G1/S (log2)” value in series [1] was -0.336. The sequence further showed a melting temperature in series [2] (cell cycle stage: mitosis) of 49.3 °C. In addition, the thermal stability score in series [3] (setting [5]) is 1.28; in series [3] (cell cycle stage: mitosis) it was 1.04. Also, the “solubility change mitosis (log2)” value in series [4] worked out at 0.37.

In the case of “MAVELGVLLVRPRPGTGLGRVMRTLLLVLWLATRGSALYFHIGETEKKCFIEEIPDETMVIGNYRTQLYDKQREEYQPATPGLGMFVEVKDPEDKVILARQYGSEGRFTFTSHTPGEHQICLHSNSTKFSLFAGGMLRVHLDIQVGEHANDYAEIAAKDKLSELQLRVRQLVEQVEQIQKEQNYQRWREERFRQTSESTNQRVLWWSILQTLILVAIGVWQMRHLKSFFEAKKLV [TMED9]”, the “solubility in G1/S (log2)” value in series [1] was 0.375. Further, the melting temperature is 55.7 °C in series [2] (cell cycle stage: G1/S) and 56.7 °C in series [2] (cell cycle stage: mitosis). Moreover, the thermal stability score was 1.59 in series [3] (setting [5]) and 1.3 in series [3] (cell cycle stage: mitosis). Further, the “solubility change mitosis (log2)” value in series [4] was 0.0692.

Regarding “MAVKKIAIFGATGQTGLTTLAQAVQAGYEVTVLVRDSSRLPSEGPRPAHVVVGDVLQAADVDKTVAGQDAVIVLLGTRNDLSPTTVMSEGARNIVAAMKAHGVDKVVACTSAFLLWDPTKVPPRLQAVTDDHIRMHKVLRESGLKYVAVMPPHIGDQPLTGAYTVTLDGRGPSRVISKHDLGHFMLRCLTTDEYDGHSTYPSHQYQ [BLVRB]”, the “solubility in G1/S (log2)” value in series [1] came out at 0.417. Besides, the figures for the melting temperature in series [2] (cell cycle stage: G1/S) and in series [2] (cell cycle stage: mitosis) were 50.4 °C and 50.7 °C, respectively. The thermal stability score in series [3] (setting [5]) worked out at 4.14; in series [3] (cell cycle stage: mitosis), 2.47. Moreover, in series [4], the “solubility change mitosis (log2)” value was -0.116.

For the sequence “MAVKVQTTKRGDPHELRNIFLQYASTEVDGERYMTPEDFVQRYLGLYNDPNSNPKIVQLLAGVADQTKDGLISYQEFLAFESVLCAPDSMFIVAFQLFDKSGNGEVTFENVKEIFGQTIIHHHIPFNWDCEFIRLHFGHNRKKHLNYTEFTQFLQELQLEHARQAFALKDKSKSGMISGLDFSDIMVTIRSHMLTPFVEENLVSAAGGSISHQVSFSYFNAFNSLLNNMELVRKIYSTLAGTRKDVEVTKEEFAQSAIRYGQVTPLEIDILYQLADLYNASGRLTLADIERIAPLAEGALPYNLAELQRQQSPGLGRPIWLQIAESAYRFTLGSVAGAVGATAVYPIDLVKTRMQNQRGSGSVVGELMYKNSFDCFKKVLRYEGFFGLYRGLIPQLIGVAPEKAIKLTVNDFVRDKFTRRDGSVPLPAEVLAGGCAGGSQVIFTNPLEIVKIRLQVAGEITTGPRVSALNVLRDLGIFGLYKGAKACFLRDIPFSAIYFPVYAHCKLLLADENGHVGGLNLLAAGAMAGVPAASLVTPADVIKTRLQVAARAGQTTYSGVIDCFRKILREEGPSAFWKGTAARVFRSSPQFGVTLVTYELLQRWFYIDFGGLKPAGSEPTPKSRIADLPPANPDHIGGYRLATATFAGIENKFGLYLPKFKSPSVAVVQPKAAVAATQ [SLC25A12]”, the “solubility in G1/S (log2)” value in series [1] is -0.00588. For the same sequence, the melting temperature in series [2] (cell cycle stage: G1/S) came out at 56 °C; in series [2] (cell cycle stage: mitosis) it was 57.1 °C. Further, the thermal stability score in series [3] (setting [5]) was -0.889; in series [3] (cell cycle stage: mitosis), -1.22. Also, the “solubility change mitosis (log2)” value in series [4] is -0.128.

Regarding “MAVNVYSTSVTSDNLSRHDMLAWINESLQLNLTKIEQLCSGAAYCQFMDMLFPGSIALKKVKFQAKLEHEYIQNFKILQAGFKRMGVDKIIPVDKLVKGKFQDNFEFVQWFKKFFDANYDGKDYDPVAARQGQETAVAPSLVAPALNKPKKPLTSSSAAPQRPISTQRTAAAPKAGPGVVRKNPGVGNGDDEAAELMQQVNVLKLTVEDLEKERDFYFGKLRNIELICQENEGENDPVLQRIVDILYATDEGFVIPDEGGPQEEQEEY [MAPRE1]”, in series [1], the “solubility in G1/S (log2)” value came to 0.394. The melting temperature was found to be 50.8 °C in series [2] (cell cycle stage: G1/S) and 51.2 °C in series [2] (cell cycle stage: mitosis). Besides, the thermal stability score was -0.163 in series [3] (setting [5]) and -0.675 in series [3] (cell cycle stage: mitosis). Moreover, in series [4], the “solubility change mitosis (log2)” value came out at 0.204.

For the sequence “MAVSAGSARTSPSSDKVQKDKAELISGPRQDSRIGKLLGFEWTDLSSWRRLVTLLNRPTDPASLAVFRFLFGFLMVLDIPQERGLSSLDRKYLDGLDVCRFPLLDALRPLPLDWMYLVYTIMFLGALGMMLGLCYRISCVLFLLPYWYVFLLDKTSWNNHSYLYGLLAFQLTFMDANHYWSVDGLLNAHRRNAHVPLWNYAVLRGQIFIVYFIAGVKKLDADWVEGYSMEYLSRHWLFSPFKLLLSEELTSLLVVHWGGLLLDLSAGFLLFFDVSRSIGLFFVSYFHCMNSQLFSIGMFSYVMLASSPLFCSPEWPRKLVSYCPRRLQQLLPLKAAPQPSVSCVYKRSRGKSGQKPGLRHQLGAAFTLLYLLEQLFLPYSHFLTQGYNNWTNGLYGYSWDMMVHSRSHQHVKITYRDGRTGELGYLNPGVFTQSRRWKDHADMLKQYATCLSRLLPKYNVTEPQIYFDIWVSINDRFQQRIFDPRVDIVQAAWSPFQRTSWVQPLLMDLSPWRAKLQEIKSSLDNHTEVVFIADFPGLHLENFVSEDLGNTSIQLLQGEVTVELVAEQKNQTLREGEKMQLPAGEYHKVYTTSPSPSCYMYVYVNTTELALEQDLAYLQELKEKVENGSETGPLPPELQPLLEGEVKGGPEPTPLVQTFLRRQQRLQEIERRRNTPFHERFFRFLLRKLYVFRRSFLMTCISLRNLILGRPSLEQLAQEVTYANLRPFEAVGELNPSNTDSSHSNPPESNPDPVHSEF [GGCX]”, the “solubility in G1/S (log2)” value in series [1] stood at 0.0675. Also, the melting temperature in series [2] (cell cycle stage: G1/S) is 53 °C; in series [2] (cell cycle stage: mitosis) it was 53.1 °C. The thermal stability score in series [3] (setting [5]) is -1.48; in series [3] (cell cycle stage: mitosis) it was -3.01. Also, the “solubility change mitosis (log2)” value in series [4] is -0.054.

As for “MAVVIRLLGLPFIAGPVDIRHFFTGLTIPDGGVHIIGGEIGEAFIIFATDEDARRAISRSGGFIKDSSVELFLSSKAEMQKTIEMKRTDRVGRGRPGSGTSGVDSLSNFIESVKEEASNSGYGSSINQDAGFHTNGTGHGNLRPRKTRPLKAENPYLFLRGLPYLVNEDDVRVFFSGLCVDGVIFLKHHDGRNNGDAIVKFASCVDASGGLKCHRSFMGSRFIEVMQGSEQQWIEFGGNAVKEGDVLRRSEEHSPPRGINDRHFRKRSHSKSPRRTRSRSPLGFYVHLKNLSLSIDERDLRNFFRGTDLTDEQIRFLYKDENRTRYAFVMFKTLKDYNTALSLHKTVLQYRPVHIDPISRKQMLKFIARYEKKRSGSLERDRPGHVSQKYSQEGNSGQKLCIYIRNFPFDVTKVEVQKFFADFLLAEDDIYLLYDDKGVGLGEALVKFKSEEQAMKAERLNRRRFLGTEVLLRLISEAQIQEFGVNFSVMSSEKMQARSQSRERGDHSHLFDSKDPPIYSVGAFENFRHQLEDLRQLDNFKHPQRDFRQPDRHPPEDFRHSSEDFRFPPEDFRHSPEDFRRPREEDFRRPSEEDFRRPWEEDFRRPPEDDFRHPREEDWRRPLEEDWRRPLEEDFRRSPTEDFRQLPEEDFRQPPEEDLRWLPEEDFRRPPEEDWRRPPEEDFRRPLQGEWRRPPEDDFRRPPEEDFRHSPEEDFRQSPQEHFRRPPQEHFRRPPPEHFRRPPPEHFRRPPPEHFRRPPPEHFRRPPPEHFRRPPPEHFRRPPQEHFRRPPQEHFRRSREEDFRHPPDEDFRGPPDEDFRHPPDEDFRSPQEEDFRCPSDEDFRQLPEEDLREAPEEDPRLPDNFRPPGEDFRSPPDDFRSHRPFVNFGRPEGGKFDFGKHNMGSFPEGRFMPDPKINCGSGRVTPIKIMNLPFKANVNEILDFFHGYRIIPDSVSIQYNEQGLPTGEAIVAMINYNEAMAAIKDLNDRPVGPRKVKLTLL [RBM12B]”, in series [1], the “solubility in G1/S (log2)” value was -0.972. The melting temperature in series [2] (cell cycle stage: G1/S) is 47.6 °C; in series [2] (cell cycle stage: mitosis), 49.7 °C. Further, the thermal stability score in series [3] (setting [5]) turned out to be 0.194; in series [3] (cell cycle stage: mitosis), 1.05. In series [4], the “solubility change mitosis (log2)” value stood at 0.191.
